{"source": "paper PMC1935004", "binders": {"B1": {"name": "1/2OP1blaP (dsDNA)", "DNA 1": "AAAGTATTACAT", "DNA 2": "ATGTAATACTTT"}}, "key": {"[1]": {"target": "T1, BLBlaI-NTD (Bacillus licheniformis, UniProt P06555 1-82)", "T1 sequence": "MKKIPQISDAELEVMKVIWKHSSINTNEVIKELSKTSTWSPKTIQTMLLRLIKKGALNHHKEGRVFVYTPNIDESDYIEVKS", "assay": "NMR titration"}, "[2]": {"target": "T2, SAMecI-NTD (Staphylococcus aureus, UniProt P68261 1-83)", "T2 sequence": "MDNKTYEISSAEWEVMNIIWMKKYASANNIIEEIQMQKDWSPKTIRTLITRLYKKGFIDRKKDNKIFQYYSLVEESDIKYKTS", "assay": "NMR titration"}}}
{"binder": "B1", "values": [{"measurement": "Kd", "setting": "[1]", "value": "190 ± 50", "unit": "µM"}, {"measurement": "Kd", "setting": "[2]", "value": "860 ± 80", "unit": "µM"}]}
